From patent publication US20190359693A1

Key:
[1] = molecular target: hemagglutinin (HA) of influenza B/Brisbane/60/08 (Victoria) (influenza B virus); assay: cell-based or functional assay
[2] = molecular target: hemagglutinin (HA) of influenza B/Florida/04/06 (Yamagata) (influenza B virus); assay: cell-based or functional assay
[3] = molecular target: hemagglutinin (HA) of influenza A/Wisconsin/67/05 (H3N2) (influenza A virus); assay: cell-based or functional assay
[4] = molecular target: HA of H3N2 A/Wisconsin/67/2005 (influenza A virus); assay: AlphaLISA competition vs CR8057
[5] = molecular target: HA of H3N2 A/Brisbane/10/2007 (influenza A virus); assay: AlphaLISA competition vs CR8057
[6] = molecular target: HA of B/Brisbane/60/2008 (Victoria) (influenza B virus); assay: AlphaLISA competition vs SD1083
[7] = molecular target: HA of B/Florida/04/2006 (Yamagata) (influenza B virus); assay: AlphaLISA competition vs SD1083
[8] = molecular target: HA of H1N1 A/New Caledonia/20/1999 (influenza A virus); assay: BLI steady state
[9] = molecular target: HA of H1N1 A/Brisbane/59/07 (influenza A virus); assay: BLI steady state
[10] = molecular target: HA of H3N2 A/Wisconsin/67/2005 (influenza A virus); assay: BLI steady state
[11] = molecular target: HA of H7N3 A/NIBRG/60 (A/mallard/NL/12/00) (influenza A virus); assay: BLI steady state
[12] = molecular target: HA of H7N9 A/Hangzhou/1/2013 (influenza A virus); assay: BLI steady state
[13] = molecular target: HA of H3N2 A/Brisbane/10/2007 (influenza A virus); assay: BLI steady state
[14] = molecular target: HA of H3N2 A/Brisbane/10/2007 (influenza A virus); assay: AlphaLISA competition vs 39.29
[15] = molecular target: HA of H3N2 A/Brisbane/10/2007 (influenza A virus); assay: AlphaLISA competition vs SD1036
[16] = molecular target: HA of H3N2 A/Wisconsin/67/2005 (influenza A virus); assay: AlphaLISA competition vs CR8020
[17] = molecular target: HA of H3N2 A/Brisbane/10/2007 (influenza A virus); assay: AlphaLISA competition vs CR8020
[18] = molecular target: HA of B/Brisbane/60/2008 (Victoria) (influenza B virus); assay: AlphaLISA competition vs SD1087
[19] = molecular target: HA of B/Florida/04/2006 (Yamagata) (influenza B virus); assay: AlphaLISA competition vs SD1087
[20] = molecular target: HA of B/Brisbane/60/2008 (Victoria) (influenza B virus); assay: AlphaLISA competition vs SD1085
[21] = molecular target: HA of B/Florida/04/2006 (Yamagata) (influenza B virus); assay: AlphaLISA competition vs SD1085
[22] = molecular target: HA of H1N1 A/New Caledonia/20/1999 (influenza A virus); assay: AlphaLISA competition vs CR9114
[23] = molecular target: HA of B/Brisbane/60/2008 (Victoria) (influenza B virus); assay: AlphaLISA competition vs CR9114
[24] = molecular target: HA of H3N2 A/Wisconsin/67/2005 (influenza A virus); assay: AlphaLISA competition vs CR9114
[25] = molecular target: HA of H5N1 A/Vietnam/1203/2004 (influenza A virus); assay: AlphaLISA competition vs CR9114
[26] = molecular target: HA of H3N2 A/Brisbane/10/2007 (influenza A virus); assay: AlphaLISA competition vs CR9114
[27] = molecular target: HA of B/Brisbane/60/2008 (Victoria) (influenza B virus); assay: AlphaLISA competition vs SD1086
[28] = molecular target: HA of B/Florida/04/2006 (Yamagata) (influenza B virus); assay: AlphaLISA competition vs SD1086
[29] = molecular target: HA of H1N1 A/New Caledonia/20/1999 (influenza A virus); assay: cell-based or functional assay
[30] = molecular target: hemagglutinin (HA) of influenza A/New York/107/03 (PR8) (influenza A virus A/New York/107/03 (PR8)); assay: cell-based or functional assay
[31] = molecular target: HA of H1N1 A/Brisbane/59/07 (influenza A virus); assay: cell-based or functional assay
[32] = molecular target: hemagglutinin (HA) of influenza virus H1N1 A/Puerto Rico/8/34-MA (influenza A virus); assay: cell-based or functional assay
[33] = molecular target: HA of B/Brisbane/60/2008 (Victoria) (influenza B virus); assay: cell-based or functional assay
[34] = molecular target: hemagglutinin (HA) of influenza virus H3N2 A/Wisconsin/67/05 (influenza A virus); assay: cell-based or functional assay
[35] = molecular target: hemagglutinin (HA) of influenza A/waterfowl/Hong Kong/MPA892/06 (H4) (influenza A virus A/waterfowl/Hong Kong/MPA892/06 (H4)); assay: cell-based or functional assay
[36] = molecular target: hemagglutinin (HA) of influenza virus H5N1 A/Vietnam/1194/04 (influenza A virus); assay: cell-based or functional assay
[37] = molecular target: HA of B/Florida/04/2006 (Yamagata) (influenza B virus); assay: cell-based or functional assay
[38] = molecular target: HA of H3N2 A/Wisconsin/67/2005 (influenza A virus); assay: cell-based or functional assay
[39] = molecular target: hemagglutinin (HA) of influenza A/Brisbane/10/07 (H3N2) (influenza A virus A/Brisbane/10/07 (H3N2)); assay: cell-based or functional assay
[40] = molecular target: HA of H7N3 A/NIBRG/60 (A/mallard/NL/12/00) (influenza A virus); assay: cell-based or functional assay
[41] = molecular target: hemagglutinin (HA) of influenza A/chicken/Germany/n/49 (H10N7) (influenza A virus A/chicken/Germany/n/49 (H10N7)); assay: cell-based or functional assay
[42] = molecular target: hemagglutinin (HA) of influenza virus H1N1 A/California/07/09 (influenza A virus); assay: cell-based or functional assay
[43] = molecular target: HA of H3N2 A/Brisbane/10/2007 (influenza A virus); assay: cell-based or functional assay
[44] = molecular target: HA of H5N1 A/Vietnam/1194/04 (influenza A virus); assay: cell-based or functional assay
[45] = molecular target: HA of B/Brisbane/60/2008 (Victoria) (influenza B virus); assay: AlphaLISA competition vs SD1084
[46] = molecular target: HA of B/Florida/04/2006 (Yamagata) (influenza B virus); assay: AlphaLISA competition vs SD1084
[47] = molecular target: HA of H3N2 A/Brisbane/10/2007 (influenza A virus); assay: AlphaLISA competition vs SD1038

Chain of SD1036 (VHH) (VHH): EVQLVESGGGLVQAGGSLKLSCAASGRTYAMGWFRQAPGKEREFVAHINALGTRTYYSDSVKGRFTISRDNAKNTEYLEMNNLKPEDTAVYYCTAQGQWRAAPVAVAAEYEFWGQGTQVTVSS

**Q.** Which ADCC induction (EC50 grade, FcγRIIIa reporter bioassay) [1] does the source give for CR9114 (antibody) here?
**A.** Its ADCC induction (EC50 grade, FcγRIIIa reporter bioassay) is under 0.1 µg/mL.

**Q.** What about the ADCC induction (EC50 grade, FcγRIIIa reporter bioassay) [2] of the same substance?
**A.** The ADCC induction (EC50 grade, FcγRIIIa reporter bioassay) was under 0.1 µg/mL.

**Q.** And the ADCC induction (EC50 grade, FcγRIIIa reporter bioassay) [3]?
**A.** Its ADCC induction (EC50 grade, FcγRIIIa reporter bioassay) is under 0.1 µg/mL.

**Q.** For CR9114-LALA (antibody), which ADCC induction (EC50 grade, FcγRIIIa reporter bioassay) [1] is on record?
**A.** The ADCC induction (EC50 grade, FcγRIIIa reporter bioassay) was over 0.5 µg/mL.

**Q.** What about the ADCC induction (EC50 grade, FcγRIIIa reporter bioassay) [2] of the same substance?
**A.** Its ADCC induction (EC50 grade, FcγRIIIa reporter bioassay) is over 0.5 µg/mL.

**Q.** What about the ADCC induction (EC50 grade, FcγRIIIa reporter bioassay) [3] of the same substance?
**A.** Its ADCC induction (EC50 grade, FcγRIIIa reporter bioassay) is over 0.5 µg/mL.

**Q.** Which pIC50 [4] does the source give for SD1036 (VHH) here?
**A.** The pIC50 was under 7.

**Q.** And the pIC50 [5]?
**A.** Its pIC50 is under 7.

**Q.** And the pIC50 [6]?
**A.** Its pIC50 is under 7.

**Q.** What about the pIC50 [7] of the same substance?
**A.** Its pIC50 is under 7.

**Q.** And the Kd [8]?
**A.** Its Kd is 230 nM.

**Q.** What about the Kd [9] of the same substance?
**A.** The Kd was 290 nM.

**Q.** What about the Kd [10] of the same substance?
**A.** The Kd was 122 nM.

**Q.** And the Kd [11]?
**A.** The Kd was 2 nM.

**Q.** And the Kd [12]?
**A.** The Kd was 3 nM.

**Q.** What about the Kd [13] of the same substance?
**A.** Its Kd is 10 nM.

**Q.** What about the pIC50 [14] of the same substance?
**A.** The pIC50 was 9.2.

**Q.** What about the pIC50 [15] of the same substance?
**A.** Its pIC50 is 9.1.

**Q.** And the pIC50 [16]?
**A.** The pIC50 was 7.2.

**Q.** And the pIC50 [17]?
**A.** The pIC50 was 9.2.

**Q.** And the pIC50 [18]?
**A.** The pIC50 was under 7.

**Q.** And the pIC50 [19]?
**A.** The pIC50 was under 7.

**Q.** And the pIC50 [20]?
**A.** The pIC50 was under 7.

**Q.** And the pIC50 [21]?
**A.** The pIC50 was under 7.

**Q.** And the pIC50 [22]?
**A.** The pIC50 was under 7.

**Q.** And the pIC50 [23]?
**A.** Its pIC50 is under 7.

**Q.** And the pIC50 [24]?
**A.** Its pIC50 is 7.8.

**Q.** What about the pIC50 [25] of the same substance?
**A.** The pIC50 was under 7.

**Q.** And the pIC50 [26]?
**A.** Its pIC50 is 9.4.

**Q.** What about the pIC50 [27] of the same substance?
**A.** The pIC50 was under 7.

**Q.** And the pIC50 [28]?
**A.** The pIC50 was under 7.

**Q.** What about the VNA titer [29] of the same substance?
**A.** Its VNA titer is over 1000 nM.

**Q.** And the VNA IC50 [30]?
**A.** Its VNA IC50 is 11 nM.

**Q.** And the VNA titer [31]?
**A.** Its VNA titer is over 1000 nM.

**Q.** And the neutralization titer [32]?
**A.** The neutralization titer was under 1000 nM.

**Q.** And the VNA titer [33]?
**A.** Its VNA titer is over 1000 nM.

**Q.** What about the neutralization titer [34] of the same substance?
**A.** The neutralization titer was under 1000 nM.

**Q.** And the VNA IC50 [35]?
**A.** The VNA IC50 was 44 nM.

**Q.** What about the neutralization titer [36] of the same substance?
**A.** The neutralization titer was under 1000 nM.

**Q.** What about the VNA titer [37] of the same substance?
**A.** Its VNA titer is over 1000 nM.

**Q.** What about the VNA titer [38] of the same substance?
**A.** The VNA titer was over 1000 nM.

**Q.** And the VNA IC50 [39]?
**A.** Its VNA IC50 is 59 nM.

**Q.** What about the VNA titer [40] of the same substance?
**A.** Its VNA titer is 10.9 nM.

**Q.** What about the VNA IC50 [41] of the same substance?
**A.** The VNA IC50 was 10 nM.

**Q.** What about the neutralization titer [42] of the same substance?
**A.** Its neutralization titer is under 1000 nM.

**Q.** What about the VNA titer [43] of the same substance?
**A.** Its VNA titer is 86.7 nM.

**Q.** And the VNA titer [44]?
**A.** The VNA titer was over 1000 nM.

**Q.** And the pIC50 [45]?
**A.** Its pIC50 is under 7.

**Q.** And the pIC50 [46]?
**A.** The pIC50 was under 7.

**Q.** And the pIC50 [47]?
**A.** Its pIC50 is 9.3.
